In the supplement of paper PMC9170038:

Test system: MS2 coat protein
Assay: apparent KD of MS2 coat protein; designed switch direction (-1 OFF switch, 1 ON switch): 1; higher = weaker reporter binding
How it was run: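 Designed RNA switches sharing common flanks were transcribed on Illumina chips by stalled E. coli RNA polymerase. They were titrated with SNAP-549-labelled MS2 coat protein, from 0.7 or 1.5 nM doubling to 3 µM, in Tris-HCl pH 7.5 buffer with KCl, MgCl2, BSA, DTT, tRNA and Tween-20. Titrations ran without input, with 200 uM small-molecule ligand, or with an oligonucleotide input. The apparent KD of each design is the median over its clusters, after curve-fitting of normalised cluster fluorescence.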

[1] = Eterna round: R95, input ligand: FMN 200 uM
[2] = Eterna round: R95, input ligand: microRNA oligo, concentration not stated
[3] = Eterna round: R95, input ligand: none
[4] = input ligand: microRNA oligo, concentration not stated

Sequence | apparent KD of MS2 coat protein [1] [nM] | apparent KD of MS2 coat protein [2] [nM] | apparent KD of MS2 coat protein [3] [nM] | apparent KD of MS2 coat protein (input ligand: FMN 200 uM) [nM] | apparent KD of MS2 coat protein [4] [nM] | apparent KD of MS2 coat protein (input ligand: none) [nM]
UGUUAACAUGAGGAUCACCCAUGUCAAAUGAAGCGAGGAUAUGGAAAGUAAUAAGAUGAACUAGAAGGUGUAGAUG [Altered State 1-21 - Jieux - Same State 1] (puzzle: Same State 1) | 40.5 | 48.4 | 52.8 |  |  | 
GGAGCCGGCCUAGGAUAUUUCAUUAUUAAACAUGAGGAUCACCCAUGUAGGCCAGAAGGCCUUGGGAAGAAGGAGGUCGGCUCC [Loop Effect - U24,U26,U28] (Eterna round: R96, puzzle: Same State NG 2) |  |  |  | 17.1 | 49.6 | 68.5
UUGAAUAAUUAAGGAUAUCGAGUCAAGAUGUUAAACAUGAGGAUCACCCAUGUGGGUUGCGGUAUCGAGAAGGUAAAUAAGAAG [Mat - Same State NG 2 - JL mod - D55] (Eterna round: R96, puzzle: Same State NG 2) |  |  |  | 26.6 | 19.6 | 42.5
AAACGACACACAGGAUAUCCGCCAUGCAGGCUCGGAGAAGGGUGUGAAACAUGAGGAUCACCCAUGUAGUCAAAAUAAUAAAGA [Arardixequ] (Eterna round: R96, puzzle: Same State NG 1) |  |  |  | 47 | 62.9 | 58.9
AAGAAACAUGAGGAUCACCCAUGUAAGAUAAACACAGGAUAUGCGAAUAAAAUAAAUAAAGCAGAAGGGUGAAGAA [Mat - Same State 1 - Tesla mod - D150] (Eterna round: R96, puzzle: Same State 1) |  |  |  |  | 38.9 | 
CGUCCGGCCUGUGCUGGCCGGAAGCAUGUACAUGAGGAUCACCCAUGUUCAUGUGCAGGCUUUUUGCUCGUCUUGUG [salish99_mir208a_r3_006] (puzzle: Sensor for hsa-mir-208a) | 41.3 | 12.4 | 39.4 |  |  | 
CCGCUCCGUGGAGGAUAUGGGCCUGCCCGGGAUACCGGGCCUAACACAUGAGGAUCACCCAUGUCCCAGAAGGCCGCUGGAGCC [Rasoleis] (Eterna round: R96, puzzle: Same State NG 2) |  |  |  | 18.9 | 85.1 | 58.2
GUAGCAUACCGAGGAUAUUCAUACAUGAGGAUCACCCAUGUUUAAUUAUAGGCCAAAAGGCCUUGGGAGAAGGCGGAAUGCUAC [Xeonanis - 20 Mod14] (Eterna round: R96, puzzle: Same State NG 2) |  |  |  | 8.39 | 10.1 | 14.4
GUUACAUGAGGAUCACCCAUGUAUGUGUGGGAGUAAGUGUCUUAGGAUAUCUAGUGUUUAAUUUAAGAGAAGGAAGAUUGUUGU [JMF's solution 53] (Eterna round: R96, puzzle: Same State NG 3) |  |  |  | 134 | 96.8 | 116
GGUCCAGCCUGAGCUGGACUAUAGUAUGUACAUGAGGAUCACCCAUGUCAUGUAUAAGUAUGUUGUUUGUCUUGAAA [Sensorship 4 - Jieux - Sensor for hsa-mir-208a] (puzzle: Sensor for hsa-mir-208a) | 23.6 | 20.1 | 24.2 |  |  | 
CACGCCUCGGUAGGAUAUGAGGUGCCAUAGGCAACAGCCUAUGGACAUGAGGAUCACCCAUGUCCUCAGAAGGGCCAGGCGUGA [Rexeorar] (Eterna round: R96, puzzle: Same State NG 2) |  |  |  | 25.9 | 66.3 | 114
GAGUAGGACUUACAGGAUAUAUGGAGGUUGACAUGAGGAUCACCCAUGUCUGAGUUGGGAGGAGGAUAGAAGGGUAUGAGAGGCG [JR_SS2_Sub031] (puzzle: Same State 2) | 27.1 | 23.3 | 22.8 |  |  | 
CUGUAUCGCGGAGGAUAUGGGCUGAGACCAGGACAACCCUGGUCAACAUGAGGAUCACCCAUGUCCCAGAAGGCCGCGAUGCUA [Zazalaonor] (Eterna round: R96, puzzle: Same State NG 2) |  |  |  | 16.1 | 97.3 | 108
GAGCUCGUGUGAGGAUAUGCCGCCGUUUCGGCUGCAGAAGGUGCUACGUUACAUGAGGAUCACCCAUGUCUCUGUUGUUUCGUU [salish99_SSNG1_r04_959] (Eterna round: R96, puzzle: Same State NG 1) |  |  |  | 18.5 | 17 | 24.9
AGGCAAGCUUUUUGCUGGUAUGGAGGAUAACAUGAGGAUCACCCAUGUAUUGGAGGUGUUGUGGAUUUGAGAAAGAA [JR_SHM208A_Sub004] (puzzle: Sensor for hsa-mir-208a) | 74 | 94.6 | 103 |  |  | 
CGUCCGGCCUGUGCUGGCCGGUAGCUUGUACAUGAGGAUCACCCAUGUUCUUGUGCAGGCUUUUUGCUCGUCUUGUG [salish99_mir208a_016] (puzzle: Sensor for hsa-mir-208a) | 365 | 23.9 | 452 |  |  | 
AGCUAUUAAUCAGGAUAUAGGGACAUGAGGAUCACCCAUGUAUACAUGAUGAAAUGUGGUCACCUCUAGAAGGGAUUACUAACA [SameState NG2 #42] (Eterna round: R96, puzzle: Same State NG 2) |  |  |  | 155 | 109 | 178
AAAAUUUCUGCACAGGAUAUGUAGUGUUUCACAUGAGGAUCACCCAUGUCAAAACCAGAGACUGUACAGAAGGGUGCGGUCGGAC [Onedxequ] (puzzle: Same State 2) | 15.8 | 10.3 | 14.6 |  |  | 
GCUAGGAAUAAAGCCAACAUGAGGAUCACCCAUGUAUGUUGGUAGGAUAUCGUUUGCUUUGCAAACGAGAAGGGCUAACCUAGC [JL SSNG3 1.24] (Eterna round: R96, puzzle: Same State NG 3) |  |  |  | 74.6 | 64.5 | 67.5
GGUAGGUUACUACCAAACAUGAGGAUCACCCAUGUUGAUGGGAAGGAUAUGGUACCUUUUAGGUACCAGAAGGUCUAAUCGAUC [NGss mod of JL's mod of Fisker 4] (Eterna round: R96, puzzle: Same State NG 3) |  |  |  | 120 | 115 | 166
AACUUACUAUCUCAGGAUAUCAUGUCAAAGACAUGAGGAUCACCCAUGUACCAGGAAACUGGUUAUGAGAAGGGAGAUAGUAAGA [Mat - Same State 2 - Mod - D49] (puzzle: Same State 2) | 167 | 128 | 611 |  |  | 
ACGCAGCUGGGUGAGGAUAUCGGUGGUAAAACAUGAGGAUCACCCAUGUCCGAAGCUCGGACUUCCGAGAAGGCGCCCGGCUGCG [Soinraesar] (puzzle: Same State 2) | 11.4 | 104 | 103 |  |  | 
AGCGAGAUAGGCAAGGAUAUGCUGGGUUGCACAUGAGGAUCACCCAUGUCAUUGGUUAUGGCCGAGCAGAAGGUGCAUUCUCUUU [ak bound state near shape] (puzzle: Same State 2) | 19.5 | 75.6 | 66.5 |  |  | 
UAGAGAGGAAGCGAGGAUAUCGUGUGAGGUACAUGAGGAUCACCCAUGUUUGAUGUUGAGAGAGGCGAGAAGGCGCAGGAGAUAA [JR_SS2_Sub085] (puzzle: Same State 2) | 31.9 | 32.4 | 34.1 |  |  | 
UUCUGAUAGCGAGGAUAUCGCGAGGAUCACCCGUGAGAAGGCGCAGAGCCGAGGAUCACCCGGCUGAUCCUGAGAAGGAGGUCA (Eterna round: R96, puzzle: Same State NG 1) |  |  |  | 136 | 333 | 530
AUAUAACAUGAGGAUCACCCAUGUCUCUAAAGUCGAGGAUAUGGGCAAAUAAUAUAAGAACCAGAAGGCGAAUUAU [SS1 Teenbexe 4] (puzzle: Same State 1) | 143 | 34.1 | 79.3 |  |  | 
AGUCCAGCCAGAGCUGGACAAAAGCAUGUACAUGAGGAUCACCCAUGUUCAUGUACAAGCUUUUUGCUCGUCUUAAU [Mat - hsa-mir-208a - Mod of JL - 59] (puzzle: Sensor for hsa-mir-208a) | 482 | 14.1 | 553 |  |  | 
